Assay results from article PMC12086504 (Traffic (Copenhagen, Denmark), 2025).

T1: BicD^CC2‐CC3 (amino acids 318–782) (Drosophila, UniProt P16568 318-782, biotin on the biotin tag)
T1 sequence (looked up): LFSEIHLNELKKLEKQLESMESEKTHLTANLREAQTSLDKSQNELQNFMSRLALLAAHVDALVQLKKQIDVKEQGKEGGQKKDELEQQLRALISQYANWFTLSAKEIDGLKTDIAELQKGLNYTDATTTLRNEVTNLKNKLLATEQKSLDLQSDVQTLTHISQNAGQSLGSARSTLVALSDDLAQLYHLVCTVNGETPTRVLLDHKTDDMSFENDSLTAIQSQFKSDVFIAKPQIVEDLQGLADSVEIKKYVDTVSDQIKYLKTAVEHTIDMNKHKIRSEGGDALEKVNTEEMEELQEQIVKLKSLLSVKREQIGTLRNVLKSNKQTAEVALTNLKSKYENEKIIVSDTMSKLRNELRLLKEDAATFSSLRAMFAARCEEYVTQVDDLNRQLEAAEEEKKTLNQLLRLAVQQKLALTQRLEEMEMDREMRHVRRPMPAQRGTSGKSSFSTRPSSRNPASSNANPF


Experiments:
[1] = biological target: T1, BicD^CC2‐CC3 (amino acids 318–782); assay: single-molecule TIRF microscopy
[2] = biological target: T1, BicD^CC2‐CC3 (amino acids 318–782); assay: interferometric scattering mass spectrometry

Binder | percent of Qdots in complexes with BicD^CC2-CC3 [1] | stoichiometry N [2]
heterotetrameric kinesin^KLC (kinesin heavy chain with bound kinesin light chains) (complex, biotin on the biotin tag) heavy: MSAEREIPAEDSIKVVCRFRPLNDSEEKAGSKFVVKFPNNVEENCISIAGKVYLFDKVFKPNASQEKVYNEAAKSIVTDVLAGYNGTIFAYGQTSSGKTHTMEGVIGDSVKQGIIPRIVNDIFNHIYAMEVNLEFHIKVSYYEIYMDKIRDLLDVSKVNLSVHEDKNRVPYVKGATERFVSSPEDVFEVIEEGKSNRHIAVTNMNEHSSRSHSVFLINVKQENLENQKKLSGKLYLVDLAGSEKVSKTGAEGTVLDEAKNINKSLSALGNVISALADGNKTHIPYRDSKLTRILQESLGGNARTTIVICCSPASFNESETKSTLDFGRRAKTVKNVVCVNEELTAEEWKRRYEKEKEKNARLKGKVEKLEIELARWRAGETVKAEEQINMEDLMEASTPNLEVEAAQTAAAEAALAAQRTALANMSASVAVNEQARLATECERLYQQLDDKDEEINQQSQYAEQLKEQVMEQEELIANARREYETLQSEMARIQQENESAKEEVKEVLQALEELAVNYDQKSQEIDNKNKDIDALNEELQQKQSVFNAASTELQQLKDMSSHQKKRITEMLTNLLRDLGEVGQAIAPGESSIDLKMSALAGTDASKVEEDFTMARLFISKMKTEAKNIAQRCSNMETQQADSNKKISEYEKDLGEYRLLISQHEARMKSLQESMREAENKKRTLEEQIDSLREECAKLKAAEHVSAVNAEEKQRAEELRSMFDSQMDELREAHTRQVSELRDEIAAKQHEMDEMKDVHQKLLLAHQQMTADYEKVRQEDAEKSSELQNIILTNERREQARKDLKGLEDTVAKELQTLHNLRKLFVQDLQQRIRKNVVNEESEEDGGSLAQKQKISFLENNLDQLTKVHKQLVRDNADLRCELPKLEKRLRCTMERVKALETALKEAKEGAMRDRKRYQYEVDRIKEAVRQKHLGRRGPQAQIAKPIRSGQGAIAIRGGGAVGGPSPLAQVNPVNS light: MTQMSQDEIITNTKTVLQGLEALRVEHVSIMNGIAEVQKDNEKSDMLRKNIENIELGLSEAQVMMALTSHLQNIEAEKHKLKTQVRRLHQENAWLRDELANTQQKFQASEQLVAQLEEEKKHLEFMASVKKYDENQEQDDACDKSRTDPVVELFPDEENEDRHNMSPTPPSQFANQTSGYEIPARLRTLHNLVIQYASQGRYEVAVPLCKQALEDLERTSGHDHPDVATMLNILALVYRDQNKYKEAANLLNDALSIRGKTLGENHPAVAATLNNLAVLYGKRGKYKDAEPLCKRALEIREKVLGKDHPDVAKQLNNLALLCQNQGKYDEVEKYYQRALDIYESKLGPDDPNVAKTKNNLAGCYLKQGRYTEAEILYKQVLTRAHEREFGAIDSKNKPIWQVAEEREEHKFDNRENTPYGEYGGWHKAAKVDSPTVTTTLKNLGALYRRQGMFEAAETLEDCAMRSKKEAYDLAKQTKLSQLLTSNEKRRSKAIKEDLDFSEEKNAKP | 3.7% | –
Drosophila kinesin^ΔH2 (kinesin heavy chain lacking the hinge 2 region, amino acids K521‐D641) (natural protein, Drosophila melanogaster, UniProt P17210 1-975, looked up, biotin on the biotin tag) MSAEREIPAEDSIKVVCRFRPLNDSEEKAGSKFVVKFPNNVEENCISIAGKVYLFDKVFKPNASQEKVYNEAAKSIVTDVLAGYNGTIFAYGQTSSGKTHTMEGVIGDSVKQGIIPRIVNDIFNHIYAMEVNLEFHIKVSYYEIYMDKIRDLLDVSKVNLSVHEDKNRVPYVKGATERFVSSPEDVFEVIEEGKSNRHIAVTNMNEHSSRSHSVFLINVKQENLENQKKLSGKLYLVDLAGSEKVSKTGAEGTVLDEAKNINKSLSALGNVISALADGNKTHIPYRDSKLTRILQESLGGNARTTIVICCSPASFNESETKSTLDFGRRAKTVKNVVCVNEELTAEEWKRRYEKEKEKNARLKGKVEKLEIELARWRAGETVKAEEQINMEDLMEASTPNLEVEAAQTAAAEAALAAQRTALANMSASVAVNEQARLATECERLYQQLDDKDEEINQQSQYAEQLKEQVMEQEELIANARREYETLQSEMARIQQENESAKEEVKEVLQALEELAVNYDQSNKKISEYEKDLGEYRLLISQHEARMKSLQESMREAENKKRTLEEQIDSLREECAKLKAAEHVSAVNAEEKQRAEELRSMFDSQMDELREAHTRQVSELRDEIAAKQHEMDEMKDVHQKLLLAHQQMTADYEKVRQEDAEKSSELQNIILTNERREQARKDLKGLEDTVAKELQTLHNLRKLFVQDLQQRIRKNVVNEESEEDGGSLAQKQKISFLENNLDQLTKVHKQLVRDNADLRCELPKLEKRLRCTMERVKALETALKEAKEGAMRDRKRYQYEVDRIKEAVRQKHLGRRGPQAQIAKPIRSGQGAIAIRGGGAVGGPSPLAQVNPVNS | 21.3% | 2 kinesins per BicD^CC2-CC3

Second part, the binder after the results:

percent of Qdots in complexes with BicD^CC2-CC3 [1] | stoichiometry N [2] | Binder
16.4% | – | homodimeric Drosophila kinesin‐1 (kinesin heavy chain, no bound light chains) (natural protein, Drosophila melanogaster, UniProt P17210 1-975, looked up, biotin on the biotin tag (biotinylation occurs during expression in Sf9 cells)) MSAEREIPAEDSIKVVCRFRPLNDSEEKAGSKFVVKFPNNVEENCISIAGKVYLFDKVFKPNASQEKVYNEAAKSIVTDVLAGYNGTIFAYGQTSSGKTHTMEGVIGDSVKQGIIPRIVNDIFNHIYAMEVNLEFHIKVSYYEIYMDKIRDLLDVSKVNLSVHEDKNRVPYVKGATERFVSSPEDVFEVIEEGKSNRHIAVTNMNEHSSRSHSVFLINVKQENLENQKKLSGKLYLVDLAGSEKVSKTGAEGTVLDEAKNINKSLSALGNVISALADGNKTHIPYRDSKLTRILQESLGGNARTTIVICCSPASFNESETKSTLDFGRRAKTVKNVVCVNEELTAEEWKRRYEKEKEKNARLKGKVEKLEIELARWRAGETVKAEEQINMEDLMEASTPNLEVEAAQTAAAEAALAAQRTALANMSASVAVNEQARLATECERLYQQLDDKDEEINQQSQYAEQLKEQVMEQEELIANARREYETLQSEMARIQQENESAKEEVKEVLQALEELAVNYDQKSQEIDNKNKDIDALNEELQQKQSVFNAASTELQQLKDMSSHQKKRITEMLTNLLRDLGEVGQAIAPGESSIDLKMSALAGTDASKVEEDFTMARLFISKMKTEAKNIAQRCSNMETQQADSNKKISEYEKDLGEYRLLISQHEARMKSLQESMREAENKKRTLEEQIDSLREECAKLKAAEHVSAVNAEEKQRAEELRSMFDSQMDELREAHTRQVSELRDEIAAKQHEMDEMKDVHQKLLLAHQQMTADYEKVRQEDAEKSSELQNIILTNERREQARKDLKGLEDTVAKELQTLHNLRKLFVQDLQQRIRKNVVNEESEEDGGSLAQKQKISFLENNLDQLTKVHKQLVRDNADLRCELPKLEKRLRCTMERVKALETALKEAKEGAMRDRKRYQYEVDRIKEAVRQKHLGRRGPQAQIAKPIRSGQGAIAIRGGGAVGGPSPLAQVNPVNS
6.6% | – | kinesin^ΔH2 with added kinesin light chain (KLC) (complex, biotin on the biotin tag) heavy: MSAEREIPAEDSIKVVCRFRPLNDSEEKAGSKFVVKFPNNVEENCISIAGKVYLFDKVFKPNASQEKVYNEAAKSIVTDVLAGYNGTIFAYGQTSSGKTHTMEGVIGDSVKQGIIPRIVNDIFNHIYAMEVNLEFHIKVSYYEIYMDKIRDLLDVSKVNLSVHEDKNRVPYVKGATERFVSSPEDVFEVIEEGKSNRHIAVTNMNEHSSRSHSVFLINVKQENLENQKKLSGKLYLVDLAGSEKVSKTGAEGTVLDEAKNINKSLSALGNVISALADGNKTHIPYRDSKLTRILQESLGGNARTTIVICCSPASFNESETKSTLDFGRRAKTVKNVVCVNEELTAEEWKRRYEKEKEKNARLKGKVEKLEIELARWRAGETVKAEEQINMEDLMEASTPNLEVEAAQTAAAEAALAAQRTALANMSASVAVNEQARLATECERLYQQLDDKDEEINQQSQYAEQLKEQVMEQEELIANARREYETLQSEMARIQQENESAKEEVKEVLQALEELAVNYDQSNKKISEYEKDLGEYRLLISQHEARMKSLQESMREAENKKRTLEEQIDSLREECAKLKAAEHVSAVNAEEKQRAEELRSMFDSQMDELREAHTRQVSELRDEIAAKQHEMDEMKDVHQKLLLAHQQMTADYEKVRQEDAEKSSELQNIILTNERREQARKDLKGLEDTVAKELQTLHNLRKLFVQDLQQRIRKNVVNEESEEDGGSLAQKQKISFLENNLDQLTKVHKQLVRDNADLRCELPKLEKRLRCTMERVKALETALKEAKEGAMRDRKRYQYEVDRIKEAVRQKHLGRRGPQAQIAKPIRSGQGAIAIRGGGAVGGPSPLAQVNPVNS light: MTQMSQDEIITNTKTVLQGLEALRVEHVSIMNGIAEVQKDNEKSDMLRKNIENIELGLSEAQVMMALTSHLQNIEAEKHKLKTQVRRLHQENAWLRDELANTQQKFQASEQLVAQLEEEKKHLEFMASVKKYDENQEQDDACDKSRTDPVVELFPDEENEDRHNMSPTPPSQFANQTSGYEIPARLRTLHNLVIQYASQGRYEVAVPLCKQALEDLERTSGHDHPDVATMLNILALVYRDQNKYKEAANLLNDALSIRGKTLGENHPAVAATLNNLAVLYGKRGKYKDAEPLCKRALEIREKVLGKDHPDVAKQLNNLALLCQNQGKYDEVEKYYQRALDIYESKLGPDDPNVAKTKNNLAGCYLKQGRYTEAEILYKQVLTRAHEREFGAIDSKNKPIWQVAEEREEHKFDNRENTPYGEYGGWHKAAKVDSPTVTTTLKNLGALYRRQGMFEAAETLEDCAMRSKKEAYDLAKQTKLSQLLTSNEKRRSKAIKEDLDFSEEKNAKP
